How the values were obtained:
[1] = biological target: T1, 前列腺特异性膜抗原 (PSMA) on LNCaP cells (UniProt Q04609 1-750, limits assumed); experiment: cell ELISA (OD450) and immunofluorescence on fixed LNCaP cells (PSMA+) against MKN45 cells (PSMA-), anti-M13 detection
T1 construct: whole, on cells; Endogenous PSMA on fixed LNCaP cells; also called prostate specific membrane antigen; LNCaP细胞(表达PSMA)

重组表达的PSMA胞外区蛋白 = biological target: T2, 重组表达的PSMA胞外区蛋白 (UniProt Q04609 44-750, limits assumed); experiment: indirect phage-ELISA, PSMA extracellular region coated at 5 μg/mL, HRP-anti-M13 detection
T2 construct: extracellular domain; also called 前列腺特异性膜抗原膜外区; PSMA抗原; not shown: His tag (purified with HisTrap FF Crude, detected with anti-His antibody)
T2 sequence (Q04609 44-750 limits assumed): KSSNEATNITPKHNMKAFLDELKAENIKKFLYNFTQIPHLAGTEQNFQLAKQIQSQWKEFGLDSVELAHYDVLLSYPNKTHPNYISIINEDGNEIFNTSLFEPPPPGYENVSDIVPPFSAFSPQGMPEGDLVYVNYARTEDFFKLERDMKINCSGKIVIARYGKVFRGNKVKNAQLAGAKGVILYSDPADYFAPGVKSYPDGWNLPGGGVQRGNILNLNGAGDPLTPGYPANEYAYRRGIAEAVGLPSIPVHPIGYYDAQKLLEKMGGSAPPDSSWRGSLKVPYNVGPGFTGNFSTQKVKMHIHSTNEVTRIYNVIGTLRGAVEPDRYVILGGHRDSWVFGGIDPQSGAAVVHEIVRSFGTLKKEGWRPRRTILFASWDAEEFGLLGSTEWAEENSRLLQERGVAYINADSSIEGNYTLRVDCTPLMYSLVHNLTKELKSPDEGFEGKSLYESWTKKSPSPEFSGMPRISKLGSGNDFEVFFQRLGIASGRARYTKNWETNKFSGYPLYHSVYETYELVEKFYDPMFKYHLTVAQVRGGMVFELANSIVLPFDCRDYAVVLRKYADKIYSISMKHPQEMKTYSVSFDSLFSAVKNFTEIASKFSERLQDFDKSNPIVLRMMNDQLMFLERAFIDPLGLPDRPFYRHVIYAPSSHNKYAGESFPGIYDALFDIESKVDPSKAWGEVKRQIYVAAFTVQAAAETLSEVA

T1 sequence (Q04609 whole entry): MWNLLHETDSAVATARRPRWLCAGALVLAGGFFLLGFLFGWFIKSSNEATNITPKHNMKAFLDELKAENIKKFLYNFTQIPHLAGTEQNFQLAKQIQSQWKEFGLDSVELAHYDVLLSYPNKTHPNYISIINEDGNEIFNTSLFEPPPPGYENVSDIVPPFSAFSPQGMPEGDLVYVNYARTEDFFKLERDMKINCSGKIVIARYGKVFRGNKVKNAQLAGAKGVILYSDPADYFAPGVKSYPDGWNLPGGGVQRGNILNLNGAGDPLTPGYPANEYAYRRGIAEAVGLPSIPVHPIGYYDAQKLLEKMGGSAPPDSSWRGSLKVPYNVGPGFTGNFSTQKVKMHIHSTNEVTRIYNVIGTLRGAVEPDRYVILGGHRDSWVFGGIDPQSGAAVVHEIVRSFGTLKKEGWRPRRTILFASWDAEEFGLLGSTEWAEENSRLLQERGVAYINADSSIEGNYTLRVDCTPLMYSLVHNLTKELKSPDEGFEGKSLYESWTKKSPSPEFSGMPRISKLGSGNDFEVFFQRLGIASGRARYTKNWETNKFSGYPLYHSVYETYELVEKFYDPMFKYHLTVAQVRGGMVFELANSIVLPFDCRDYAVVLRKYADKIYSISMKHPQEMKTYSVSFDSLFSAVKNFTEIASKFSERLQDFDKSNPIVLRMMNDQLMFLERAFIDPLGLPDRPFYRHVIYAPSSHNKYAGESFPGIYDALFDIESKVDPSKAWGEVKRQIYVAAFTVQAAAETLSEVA

B1: 抗前列腺特异性膜抗原单域重链抗体噬菌体阳性克隆 (VHH)
VHH: QVQLVESGGGLVQAGDSLRLSCAASRRTFSFMAWYRQAPGKQRELVAAITSGGRNTNYADSVKGRFTISRDNAKNTMYLQMNSLKPEDTAVYYCNAAARWNNYWGQGTPVTVSS
notes: The phage coat protein fusion and any linker are not described; Selected from a naive camelid VHH phage display library; also called 针对前列腺特异性膜抗原的单域重链抗体阳性克隆; 展示本发明所述纳米抗体的噬菌体克隆
**Q.** Does B1 bind [1]?
**A.** binds

**Q.** Does B1 bind (重组表达的PSMA胞外区蛋白)?
**A.** binds
